This is an account of results in PMC7835958, “Unlike its Paralog LEDGF/p75, HRP-2 Is Dispensable for MLL-R Leukemogenesis but Important for Leukemic Cell Survival” (Cells, 2021).

Holding throughout (details): both partners purified
For one assay, the target named is T1, MBP-LEDGF/p75_(325–530) (human, UniProt O75475 325-530).
T1 construct: LEDGF/p75 C-terminal fragment, residues 325-530; also called LEDGF_(325–530); MBP-fused C-terminal fragment of LEDGF/p75; source: E. coli Rosetta2 (DE3), purified
T1 sequence (looked up): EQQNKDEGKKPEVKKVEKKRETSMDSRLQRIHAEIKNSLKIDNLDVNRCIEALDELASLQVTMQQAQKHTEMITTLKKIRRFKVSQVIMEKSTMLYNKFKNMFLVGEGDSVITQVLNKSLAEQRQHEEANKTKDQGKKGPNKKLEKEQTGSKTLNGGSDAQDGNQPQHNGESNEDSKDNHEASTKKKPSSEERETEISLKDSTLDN
Kind of assay: AlphaScreen or HTRF; out-competition: Flag-LEDGF/p75 (0.3 nM) preincubated with MLL_(1–160)–GST (10 nM) before titration of MBP-LEDGF/p75_(325–530), MBP-HRP-2_(470–552) or MBP alone.

The target in assay [1] is T2, Full length flag-tagged LEDGF/p75 (human, UniProt O75475 1-530).
T2 construct: LEDGF/p75, full length; also called Flag-LEDGF/p75; flag-LEDGF/p75; source: E. coli Rosetta2 (DE3), purified
Described as above.

Another assay deals with T3, LEDGF/p75_(345–426) (human, UniProt O75475 345-426, 15N-labeled).
T3 construct: also called LEDGF/p75-IBD; LEDGF/p75 IBD; source: E. coli Rosetta2 (DE3), purified
T3 sequence (looked up): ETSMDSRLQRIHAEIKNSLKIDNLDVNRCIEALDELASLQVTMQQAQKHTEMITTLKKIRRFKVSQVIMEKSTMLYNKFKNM
Briefly: NMR titration; 20 µM 15N-labeled IBD (HRP-2 469–549 or LEDGF/p75 345–426) mixed with various concentrations of unlabeled synthetic MLL peptide (123–160); 15N/1H HSQC (SOFAST), 25 °C; KD from chemical shift perturbations.

The target of the next assay is T4, HRP-2_(469–549) (human, UniProt Q7Z4V5 469-549, 15N-labeled).
T4 construct: also called HRP-2-IBD; HRP-2 IBD; source: E. coli Rosetta2 (DE3), purified
T4 sequence (looked up): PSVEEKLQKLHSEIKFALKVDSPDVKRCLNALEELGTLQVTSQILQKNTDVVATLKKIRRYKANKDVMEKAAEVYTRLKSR
Described as above.

B1: MLL_(1–160)–GST (domain or fragment, UniProt Q03164 1-160, looked up)
chain: MAHSCRWRFPARPGTTGGGGGGGRRGLGGAPRQRVPALLLPPGPPVGGGGPGAPPSPPAVAAAAAAAGSSGAGVPGGAAAASAASSSSASSSSSSSSSASSGPALLRVGPGFDAALQVSAAIGTNLRRFRAVFGESGGGGGSGEDEQFLGFGSDEEVRVR
notes: MLL (MLL1, KMT2A) N-terminal fragment, residues 1-160; The printed name MLL_(1–160)–GST hints at a C-terminal GST; also called GST-tagged MLL_(1–160); GST-tagged N-terminal fragment of MLL; source: E. coli Rosetta2 (DE3), purified
Turning to B1, the binding result (with MBP-LEDGF/p75_(325–530); in assay [1]) was “binds” in each case.

B2: synthetic MLL peptide (123–160) (peptide, UniProt Q03164 123-160, looked up)
peptide: GTNLRRFRAVFGESGGGGGSGEDEQFLGFGSDEEVRVR
notes: also called MLL-derived peptide; source: synthetic peptide
In the case of B2, the binding result with LEDGF/p75_(345–426) is recorded as “binds”. The Kd with HRP-2_(469–549) stood at 54.4 ± 2.2 µM.
